Test results: the DeepSol protein solubility set

Assay: soluble on expression in E. coli; label from the status in PepcDB or PDB records

Sequence	soluble on expression in E. coli
MGSDKIHHHHHHMSTAIRYLRLYLHRPAAQGGGRRGIGYLSQYGDILRVSFDEDYIADPQRPTLSLSYRGANEADTQRILRSARDARLVRTDGRWPAYFQNLLPEGHNRDRLARERGCAPDDEFELLAAAGHDLMGALEVEPVPAQEGVPDVVRYWHTTQGLDVLEPGFVEYPVEDAASLPGVVTKFSAVQDGRRYLVKRRGAAGSVILKLPTTAHPDLVANEFTCYQLAGSLGLHCAQARIITRAEAELPEAVPLDDILAVQRFDHLADGTRVHMEEFNQALGYAPRQKYGKGLLQDWATMLRVVDRLSDQPVQDTREFLARMVAFILMGNTDAHLKNWALVYPDGHTPRLAPLYDPVCVAAFFEGATEHQYAVNRAIDRSMRALDWDALQALIKTAGLLRIPRHLALLRDLVRRAQADWPALLADAPSTLQRTVQARLAGGVALTHP	not soluble
MGSDKIHHHHHHMSTEKIFIIGLPRTATTSVCLAMLEQGYKTAHNAYTQDSFSQAQVLADTPIFCDYQTLDKDFPNSRFIHLTRAPELWLPSIKQLLQRMLVNLQRTDGGFNPHIKRCYSETFSPLTEENINSDEFLLDCYTRHQQGITEHFQDRPQDLLTIDVGDEGSYLAMLSFLNIEKEKAREGGFKQINIGGKVRAWQHLNNPLKVESTNKGRIDKVLY	not soluble
MGSDKIHHHHHHMSTLLQIKNLRTYFFTDEGVVKAVDGVSFEIEEGRTLGVVGESGCGKSVTARSIIKLLSTAGRIVSGEILYNMDGQMVDLVKFSKEEIRKVRGRHIAMIFQEPMAAFSPVYTIGDQITEGMIYHFGITKQEARERAVELLRRVGIPKPEKMIDSYPFEYSGGMRQRAMIAMALSCNPRLLIADEPTTALDVTIQAQVLDLLKDLQQEYKMAIMMITHNMGVVAEMADHVVVMYLGRVVESAPVEELFYNPKHPYTSLLLRSIPVVGKRVERLEVIEGDVPDPRNMPKGCRFHPRCPYMMKGICDEREPVEVEVGPEHRVSCFLYGGEKDGAS	not soluble
MGSDKIHHHHHHMSTRQLLRNHYVQVDRSKKPYCFLLAKEPEYNDILNNYRIPLGEYQFKRTLFAREWLYKDVWHEMVSFAFCREPLSRCISAFFYLWEAEAQRRAWLPSFNGALNAHGYGLDYSFDQFLDAVVACRDSGSNFSPMGLHFSTHTATMWDDVTDSGGSILLSNIFRLEDLIHGINHVFSVCGVPDKAKPLLRDINTNETKRPFTPSRHHIAKVEDLYGKDFELYETYGRLF	not soluble
MGSDKIHHHHHHMSVLVVGMSHRSAPVALLEKLSMDDGVRTNTVSDLVARPSLAEAMIVSTCNRLEVYAMTSSFHTGVNDVVEVLHDMSGVDMEELRGYLYVRYADAAAEHMMEVTSGLDSMVVGEQQIIGQVRTAYHSATEAGTVGPALHGLVQASLHTGKRVHTETDIDDAGASMVSFACDEALAQMSATNFAGCRALVLGAGAMASLAATHLGRLGIEHITVANRTFERAQRLADHAVEAGVAASAIEFERRMDVLCDVDVVVSATGANTFTIEAANIPAAHGDLMMIDLSLPRDISDDVAEVPGVHLVNIEKLRDVASSGEAKDHAAQRIVAEELEAYTSAQRIRDVAPAVAALRRHASSLIDSELARLSTRVPSMDEDDFSEVQRTVRRVVDKLLHQPTVRVKELAAQSGTVSYDTAIQELFGLAVEATPVAVNVDELPERINKR	not soluble
MGSDKIHHHHHHMSVVIGYYGKNGAVIAGDKRNLLFNGIESNRAKLEEVLYSGEIKNDEELFKKASEFEVTVHINDTREKVKSLGNLLSGEVVSIGKDSKRRRMYLTKEKCAIIDIENDQITNKSVKTGSGIVVFGNRYVKHFVESEIKKHVQKLLKMSAREIRDLFEKILKNIENATLSDTFEYYVVEAGEPEFEKAVNKDLDDLFNYRHDLSIKMAEMQILTMIAEKIVKIGDVGVIKNGTLVLYDEFLAINKICPEPEIYSEIEITGEFIEGDIITIDNESLKVKRTGSPVAVQKIICKK	not soluble
MGSDKIHHHHHHMSYLLRKPQSHEVSNGVKLVHEVTTSNSDLTYVEFKVLDLASGSSYTEELKKQEICIVAVTGKITVTDHESTFENIGTRESYFERKPTDSVYISNDRAFEITAVSDARVALCYSPSEKQLPTKLIKAEDNGIEHRGQFSNKRTVHNILPDSDPSANSLLVVEVYTDSGNWSSYPPHKHDQDNLPEESFLEETYYHELDPGQGFVFQRVYTDDRSIDETMTVGNENVVIVPAGYHPVGVPDGYTSYYLNVMAGPTRKWKFYNDPAHEWILER	not soluble
MGSDKIHHHHHHMSYSDVIAIAGGWEGYRVAGARTIVTSDAKRIEVELIALSQDEMVCGSCGGRCTSVHETTKRVIRDLPILDAQTYLIVHRRRLLCPQCGPTLERLSWLAKYARVTRRLAESVARLCGVVSVKHVAQYLGLSWDQVKEIDKRSLTERVGTVDLSNIEVLGMDEFALHKGHRYATVIIEPYRKEVLWIGKGRSRESIRPFFTQLGPHGCKRLKAVVMDMNASYEEEIKQHSPQADIVYDLFHVVAKYGREVIDRVRVDEANRLKEDKKARKVVKTSRWLLLRNSENVKGDDMLRLQELLEANRSLLTVYLLKDDLKQLWKFTCIEEAGLFWEQWHQRAMESGIPPLILFARRLKGYLQGILNHCLWPLHTGILEGINNKIKVIKRMAYGFRDHEYFFLKIRAAFPGIPG	not soluble
MGSDKIHHHHHHMTAANTQHVEHINECTLESVIDLIRDADKPMVFKGLCHHWPLVQAGLESAQSAMTYLRQFYQGMPVTAYYVPPEQHGRVFYNEQLDGFNYQAGRLDFNQLLDRLSQEMIKDMPAGMYMGSTDIHQCLPGLGAQNSLDLAPMQPLTSIWLGNQTKVAAHYDFPLNLACNVVGKRTFTLFPPEQISNLYVGPMELAPGGQDISLVDMANPDFERFPRFQHALDASLTAELSPGDVLFIPSMWWHHVRGVDDFNVLITHWWRDTPGFLGRPNNALLHSILSLRSLPKAQRQAWKSIFEHYIFDHDDVDDSHIPDNVKGMQTKPLDELTARKIRADLINKLKR	not soluble
MGSDKIHHHHHHMTAGGLHNGSGGMESARHCRELVERWLADGSFDARLPEVVRLRGVLQPEQYHAEGDAWTHTMLAMEAVPDDADPRVFWGVLLHDIGKAETTAFIKGRWRSWGHAEAGAGEVSAIMTRLGFPHLAADVTWLVKHHTFHFSWNLTPGARLSPKQRRFMEHPLFPLLLEVCDADAAGSRGGSDKGVKIGQLADMYADVTKGWADS	not soluble
MGSDKIHHHHHHMTAPMNVIDDYYVSLGKIGILNYRTMDESGENAFLRKYLPSLSSPTILDVGANIGGYSKAILRESPSARVYAFEPHPITFGNLTKDTAEDRFHALNIGIGAKEETLDFYDYRDEDGSSHASLYKEVIEDIHHRPSTSHRVSIRRLDDVCAELGLPHIALLKIDTEGHELAALQGAERLIRSGAIDVIQFEFNEMNVISRCFFKDFWDFLPDYRFFRLLPHGSIEIKTYIPSFCEIFAFQNIVCVKKDLPEFF	not soluble
MGSDKIHHHHHHMTATDSSILNQYLVGKEPFYQPQHDEVALFEAAYRKRLPVMVKGPTGCGKSRFVEFMAWRLGKPLVTVACNEDMTAADLVGRWLLDKDGTRWQDGPLTVAARYGAICYLDEIVEARQDTTVVIHPLTDHRRTLPLDKKGELIRAHPDFQLVISYNPGYQSLMKDLKQSTKQRFTGFEFDYPNAELEAGILVQETGVAPSIAAQLVTVAATARRLKGHGLDEGISTRLLVYAAMLMDDGVAPRAACRMALVQPITDDADIRATLEHAIDMTFA	not soluble
MGSDKIHHHHHHMTCKRALTAYPELLSRTVAAPSWVMPGTVRDNAIFLSGEVDEVGLCFFETAACLAYGENDLPEHLADLPLGWHVHLPGDLPWCDGGAEAAVPALRLMDKVAFLGAHRAVLHPPVGFADGAARLVAFVRAWEAAGRNPEDLCLENIRGEDLTGLWRTLCDLGCKVCLDMGHVLSYGQYGLLSLPGLSGRTSMLHANAPGPAGRHLSLDTLDGAGGGVGRAMCALLPDDAVVMVEVFDWEGVRRSLPLLETWFAAQR	not soluble
MGSDKIHHHHHHMTCRRITFVPNFMIRDARVLRAGFVPREVEHRDAEVNHLSSVLEPITNGEPADTAIVTGPSGTGKTCISQFVTERLREEVLNVEATYVNCWRNYTRFRTLYQILDDFGETIDIHRQSTPHDELIDRLQQYDGPRTVIILDEVDQLEDPGIIYDLHSLPHFAVICIANKEEDLFSRVDDRLVSRLRSSEHVRMDKYHDEQLHDILAARVKGGLDQDVITTNQLDRIADAAAGDARLAIGILRTAASKADRESRERITDDILLNAAEDARAQIKQKNLDSLIPHQRLVYDVVREHGPLGPSEIYDHYKRKVDDPRTKRTIRTYLSKMTQYNVLEAEGTSRDREYSLVDSTAPSVTQ	not soluble
MGSDKIHHHHHHMTDERIHILRDILLELHNGASPESVQDRFDATFTGVSAIEISLMEHELMNSDSGVTFEDVMELCDVHANLFKNAIKGVEVSDTEHPGHPVRVFKEENLALRAALIRIRRLLDTYESMEDEEMLAEMRKGLVRQMGLVGQFDIHYQRKEELFFPIMERYGHDSPPKVMWGVDDQIRELFQTALTTAKSLPEVSISSVKEAFEAFATEFESMIFKEESILLMILLESFTQDDWLQIAEESDAYGYAIIRPSEKWVPERQSFIEEKIAEEPVQLDTAEGQVQQVIDTPEGHFTITFTPKEKEAVLDRHSQQAFGNGYLSVEQANLILNHLPMEITFVNKEDIFQYYNDNTPADEMIFKRTPSQVGRNVELCHPPKYLDKVKTIMKGLREGSKDKYEMWFKSESRGKFVHITYAAVHDEDGEFQGVLEYVQDIQPYREIDTDYFRGLE	not soluble
MGSDKIHHHHHHMTDISWEMNDQTIVRKTDKIARQDTLPDLTLKKVKQGDRMRFDAHVNVDSMAEGQHLKRVTIFSNVPGGGTWELISDEGVAVGGRGTAPSPQMYFAAGLGLCLMSHVEMLAKSGEFEITSARLEQRSTWTTTMDLGAVAPANIYGKGEHMQMNLIIESPEPTPKIAEFIAYCRQACMALQTVAAATPVATGLYLNGAHIGDVGGTGPFAKVA	not soluble
MGSDKIHHHHHHMTDLKTTFAGLSLRNPIIISSSGLTNSAGKNKRLAEAGAGAIVLKSLFEEQIMLEADQLKDPAFYPEASDYLEEYIREHKLAEYLTLIKESKKECSIPIIASINCYSDSEWVDFAKQIQEAGADALEINILALQSDVQYTYGSFEQRHIDILRHIKQTVTIPVIMKLGDNLTNPVALIDQLYANGAAAVVLFNRFYQPDINIENMEQVSGEVFSTSADLATPLRWIGIASSVVNKIDYAASGGVANPEAVVKAILAGASAVEVCSAIYQNTNAFIGESTRFLSAWMERKGFKNIAQFKGKLNIKDVQGINTFERTQFLKYFGKKEA	not soluble
MGSDKIHHHHHHMTDTISYQYAAPSVLQRSSDQDELFLAKYSEIEKKEAPCFFWGKLTQPYMTARCLIALSNVVQSSFNLTPAQLSMLKDPIVTAGNERLRFEGFSNCAGVYARVDVLPDGHDGEFLENGTTNVDFNAGMISALGSISKQEKVVMSVGPKEVGLYNKGEKVIERKVPLPVKWIKGLTTVQIYQSVAERMYSFNRIQTLQLFQTLPKGTVKCDYYLVMRGQKPAFSPVKSLNAVCIGGVHRLRLLEPLLPFADELRVFVHPTMQSTIWQLYFGPVRFSLSLSRECWRGFSGEGAALDALLEDVPEKWIAAMDKYSYANQQFNPTLFAIEEHIDLDKVDSLSARLAAMGLLGFDLDDNSFFYRRLPFKTERILSLNPRMIAAEKLLEEEKVEIISNDGNRTEARVAGSGGVRHTVILDRESEKERCTCTWFSGNQGERGACKHILAVKKRVQWKN	not soluble
